Data reported in paper PMC3787081, “The Heteromultimeric Debranching Enzyme Involved in Starch Synthesis in Arabidopsis Requires Both Isoamylase1 and Isoamylase2 Subunits for Complex Stability and Activity” (PLoS ONE, 2013).

Biological target: T1, ISA2-TAP (ISA2 with a C-terminal tandem affinity purification tag) (Arabidopsis, UniProt Q8L735 71-882)
T1 construct: Isoamylase 2 (ISA2) of Arabidopsis thaliana; the chloroplast transit peptide is probably removed in the plant (surmised); also called TAP-tagged ISA2; ISA2-TAP tagged protein; source: Arabidopsis isa2-1 plants transformed with 35S::ISA2-TAP, leaf extract
T1 sequence (looked up): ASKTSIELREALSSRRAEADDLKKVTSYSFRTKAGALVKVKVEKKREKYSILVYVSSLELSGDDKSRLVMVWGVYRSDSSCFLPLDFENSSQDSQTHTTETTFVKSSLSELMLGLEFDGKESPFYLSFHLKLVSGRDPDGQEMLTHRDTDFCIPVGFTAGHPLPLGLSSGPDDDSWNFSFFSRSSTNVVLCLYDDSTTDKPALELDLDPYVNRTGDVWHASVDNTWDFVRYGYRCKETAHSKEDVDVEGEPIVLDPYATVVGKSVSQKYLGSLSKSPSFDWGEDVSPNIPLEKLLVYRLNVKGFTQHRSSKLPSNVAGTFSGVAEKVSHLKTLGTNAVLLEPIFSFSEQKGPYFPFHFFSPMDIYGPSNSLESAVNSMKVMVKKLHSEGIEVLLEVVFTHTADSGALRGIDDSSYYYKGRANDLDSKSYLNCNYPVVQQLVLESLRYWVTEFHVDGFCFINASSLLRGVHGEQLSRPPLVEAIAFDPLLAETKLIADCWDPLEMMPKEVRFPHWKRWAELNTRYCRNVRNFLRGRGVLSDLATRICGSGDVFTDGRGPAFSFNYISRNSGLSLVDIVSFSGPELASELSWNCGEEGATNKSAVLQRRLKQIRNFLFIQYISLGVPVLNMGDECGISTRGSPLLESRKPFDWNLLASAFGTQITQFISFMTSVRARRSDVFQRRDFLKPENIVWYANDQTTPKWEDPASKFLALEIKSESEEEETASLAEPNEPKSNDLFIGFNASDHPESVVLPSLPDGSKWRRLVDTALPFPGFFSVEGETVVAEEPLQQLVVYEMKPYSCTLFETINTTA
Test: affinity purification with mass spectrometry; tandem affinity purification of ISA2-TAP from leaf extracts (IgG-Sepharose, TEV elution, Calmodulin Sepharose with 2 mM CaCl2, EGTA elution); SDS-PAGE, silver stain, in-gel tryptic digestion, LC-MS/MS; wild-type extracts as control
Settings: partners not purified

- stoichiometry N: 1
B1: Isoamylase1 (ISA1), Arabidopsis, endogenous (enzyme, UniProt O04196 44-783, looked up)
chain: AKDRRSNEAENIAVVEKPLKSDRFFISDGLPSPFGPTVRDDGVNFSVYSTNSVSATICLISLSDLRQNKVTEEIQLDPSRNRTGHVWHVFLRGDFKDMLYGYRFDGKFSPEEGHYYDSSNILLDPYAKAIISRDEFGVLGPDDNCWPQMACMVPTREEEFDWEGDMHLKLPQKDLVIYEMHVRGFTRHESSKIEFPGTYQGVAEKLDHLKELGINCIELMPCHEFNELEYYSYNTILGDHRVNFWGYSTIGFFSPMIRYASASSNNFAGRAINEFKILVKEAHKRGIEVIMDVVLNHTAEGNEKGPIFSFRGVDNSVYYMLAPKGEFYNYSGCGNTFNCNHPVVRQFILDCLRYWVTEMHVDGFRFDLGSIMSRSSSLWDAANVYGADVEGDLLTTGTPISCPPVIDMISNDPILRGVKLIAEAWDAGGLYQVGMFPHWGIWSEWNGKFRDVVRQFIKGTDGFSGAFAECLCGSPNLYQGGRKPWHSINFICAHDGFTLADLVTYNNKNNLANGEENNDGENHNYSWNCGEEGDFASISVKRLRKRQMRNFFVSLMVSQGVPMIYMGDEYGHTKGGNNNTYCHDNYMNYFRWDKKEEAHSDFFRFCRILIKFRDECESLGLNDFPTAKRLQWHGLAPEIPNWSETSRFVAFSLVDSVKKEIYVAFNTSHLATLVSLPNRPGYRWEPFVDTSKPSPYDCITPDLPERETAMKQYRHFLDANVYPMLSYSSIILLLSPIKDP
notes: Isoamylase 1 (ISA1) of Arabidopsis thaliana, endogenous protein in soluble leaf extracts; Chloroplast protein; also called AtISA1; source: endogenous, Arabidopsis leaf extracts (wild type and ISA2-TAP plants)
